Measurements as given in patent US7329737 (DYAX, dated 2008).

Molecular target: T1, hK1 (human tissue kallikrein 1), recombinant (human, UniProt P06870 25-262)
T1 construct: Expressed in P. pastoris from KLK1 cDNA and purified; enzymatically active; also called KLK1; Recombinant (Pichia) Kallikrein
Experiment: SPR

| Binder | Kd | koff | kon |
| --- | --- | --- | --- |
| M0124-C12 (Fab, V domains shown) VH: EVQLLESGGGLVQPGGSLRLSCAASGFTFSWYTMQWVRQAPGKGLEWVSRIYSSGGGTYYADSVKGRFTISRDNSKNTLYLQMNSLRAEDTAMYYCARVGPWGAFDIWGQGTMVTVSS VL: DIQMTQSPGTLSLSPGERATLSCRASQSVSSNYLAWYQQKPGKAPKLLIYAASSLQSGVPSRFSGSGSGTDFTLTISSLQPEDFATYYCQQRWTFGQGTKVEIKR | 32.5 nM | 0.126 s⁻¹ | 3.89e+06 M⁻¹ s⁻¹ |
| M0092-G06 (Fab, V domains shown) VH: EVQLLESGGGLVQPGGSLRLSCAASGFTFSHYGMNWVRQAPGKGLEWVSSIWSSGGYTTYADSVKGRFTISRDNSKNTLYLQMNSLRAEDTAVYYCARVGIWYSMDVWGQGTTVTVSS VL: AQSELTQPRSVSGSPGQSVTISCTGTSGEVANYNYVSWYHQDPGLVPKLKIYDVSRRPSGVPDRFSGAKSGDTASLTISGLQAEDEGDYYCASYVGNDKLVFGGGTKLTVLG | 30.9 nM | 0.00663 s⁻¹ | 215000 M⁻¹ s⁻¹ |
| M0093-E11 (Fab, V domains shown) VH: EVQLLESGGGLVQPGGSLRLSCAASGFTFSHYEMAWVRQAHGKGLEWVSVIYPSGGATRYADSVKGRFTISRDNSKNTLYLQMNSLRAEDTAVYYCARVAQYYGMDVWGQGTTVTVSS VL: DIQMTQSPATLSLSPGERATLSCRASQSVSSYLAWYQQKPGQAPRLLIYDASNRATGIPARFSGSGSGTDFTLTISSLEPEDFAVYYCQQRSNWLTFGGGTKVEIKR | 32.4 nM | 0.0436 s⁻¹ | 1.34e+06 M⁻¹ s⁻¹ |
| M0118-E07 (Fab, V domains shown) VH: EVQLLESGGGLVQPGGSLRLSCAASGFTFSHYPMDWVRQAPGKGLEWVSRIYPSGGATKYADSVKGRFTISRDNSKNTLYLQMNSLRAEDTATYYCARGGGAFDIWGQGTMVTVSS VL: DIQMTQSPSSLSASVGDRVTITCRASQGISNYLAWYQQKPGKVPKLLIYAASTLQSGVPSRFSGSGSGTDFTLTISSLQPEDVATYYCQKYNSAPLTFGGGTKVEIKR | 31.8 nM | 0.0871 s⁻¹ | 2.74e+06 M⁻¹ s⁻¹ |
| M0102-C12 (Fab, V domains shown) VH: EVQLLESGGGLVQPGGSLRLSCAASGFTFSHYLMGWVRQAPGKGLEWVSVIWPSGGITKYADSVKGRFTISRDNSKNTLYLQMNSLRAEDTAVYYCARGNGGFDSWGQGTLVTVSS VL: DIQMTQSPSSLSASVGDRVTITCRASQGISNYLAWYQQKPGKVPKLLIYAASTLQSGVPSRFSGSGSGTDFTLTISSLQPEDVATYYCQKYNSAPWTFGQGTKVEIKR | 35.4 nM | 2.62 s⁻¹ | 7.39e+07 M⁻¹ s⁻¹ |

More lines, in order of falling Kd, values ahead:

| Kd | koff | kon | Binder |
| --- | --- | --- | --- |
| 32.8 nM | 0.0055 s⁻¹ | 168000 M⁻¹ s⁻¹ | M0121-H07 (Fab, V domains shown) VH: EVQLLESGGGLVQPGGSLRLSCAASGFTFSKYYMVWVRQAPGKGLEWVSVIGPSGGWTTYADSVKGRFTISRDNSKNTLYLQMNSLRAEDTAVYYCARVDYSNYFDYWGQGTLVTVSS VL: DIQMTQSPSSLSASVGDRVTITCRASQSISRYLNWYQQKPGKAPKLLIYAASNLQSGVPSRFSGSGSGRDYTLTISSLQPEDFVTYYCQQSYSTPWTFGQGTKVEIKR |
| 32.6 nM | 0.0158 s⁻¹ | 484000 M⁻¹ s⁻¹ | M0115-F08 (Fab, V domains shown) VH: EVQLLESGGGLVQPGGSLRLSCAASGFTFSHYVMVWVRQAPGKGLEWVSSIYPSGGMTVYADSVKGRFTISRDNSKNTLYLQMNSLRAEDTAVYYCARRGIANSFNIWGQGTMVTVSS VL: AQSELTQPASVSGSPGQSITISCTGTSSDVGGYNYVSWYQQHPGKAPKLMIYEVSNRPSGVSNRFSGSKSGNTASLTISGLQAEDEADYYCSSYTSSSTWVFGGGTKLTVLG |
| 31.5 nM | 500 s⁻¹ | – | M0113-E03 (Fab, V domains shown) VH: EVQLLESGGGLVQPGGSLRLSCAASGFTFSRYTMFWVRQAPGKGLEWVSGIYPSGGKTIYADSVKGRFTISRDNSKNTLYLQMNSLRAEDTAVYYCATGGVFGVVDYWGQGTLVTVSS VL: DIQMTQSPSSLSASVGDRVTITCRASQSINSYLNWYQQKPGKAPNLLIYAASSLQNGVPSRFSGSGSGTDFTLTISSLQPEDFAAYYCQQSYSTPLTFGGGTKVEIKR |
